Measured values taken from patent US20210371538A1 (Genmab, published 2021).

Target: T1, CD20 (human, UniProt P11836 1-297, limits assumed)
T1 construct: The KD sentence says only 'CD20'; also called human CD20; B-cell antigen CD20
T1 sequence (looked up): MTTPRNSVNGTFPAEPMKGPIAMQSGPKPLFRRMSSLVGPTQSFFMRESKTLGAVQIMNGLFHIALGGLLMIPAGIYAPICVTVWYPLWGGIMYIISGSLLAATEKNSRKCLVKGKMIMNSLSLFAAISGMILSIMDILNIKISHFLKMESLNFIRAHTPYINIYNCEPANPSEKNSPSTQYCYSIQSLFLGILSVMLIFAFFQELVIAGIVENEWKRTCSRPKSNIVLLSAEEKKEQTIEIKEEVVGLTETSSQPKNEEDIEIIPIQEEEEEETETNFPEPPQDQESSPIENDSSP
Test: in vitro measurement, method not stated; used as a PK/PD model parameter

B1: DuoBody-CD3×CD20 (bispecific antibody, human IgG1, kappa, lambda)
heavy 1: not shown
light 1: not shown
heavy 2: EVQLVESGGGLVQPDRSLRLSCAASGFTFHDYAMHWVRQAPGKGLEWVSTISWNSGTIGYADSVKGRFTISRDNAKNSLYLQMNSLRAEDTALYYCAKDIQYGNYYYGMDVWGQGTTVTVSSASTKGPSVFPLAPSSKSTSGGTAALGCLVKDYFPEPVTVSWNSGALTSGVHTFPAVLQSSGLYSLSSVVTVPSSSLGTQTYICNVNHKPSNTKVDKRVEPKSCDKTHTCPPCPAPEFEGGPSVFLFPPKPKDTLMISRTPEVTCVVVAVSHEDPEVKFNWYVDGVEVHNAKTKPREEQYNSTYRVVSVLTVLHQDWLNGKEYKCKVSNKALPAPIEKTISKAKGQPREPQVYTLPPSREEMTKNQVSLTCLVKGFYPSDIAVEWESNGQPENNYKTTPPVLDSDGSFFLYSRLTVDKSRWQQGNVFSCSVMHEALHNHYTQKSLSLSPG
light 2: not shown
notes: Full-length IgG1 bispecific with an inert Fc (L234F, L235E, D265A), made by controlled Fab-arm exchange of IgG1-CD3-FEAL and IgG1-CD20-FEAR; One heavy/light pair for each arm; also called epcoritamab; GEN3013
  Kd: 5.4 nM
